The record followed here is patent US20130243746.

The target in the data set is recombinant human acid alpha glucosidase (rhGAA), 110 kDa precursor.

B1: recombinant Aspergillus oryzae alkaline protease expressed in Yarrowia lipolytica (strains OXYY2184 and OXYY2122), mature form with linker and His tag (protein)
chain: GLTTQKSAPWGLGSISHKGQQSTDYIYDTSAGEGTYAYVVDSGVNVDHEEFEGRASKAYNAAGGQHVDSIGHGTHVSGTIAGKTYGIAKKASILSVKVFQGESSSTSVILDGFNWAANDIVSKKRTSKAAINMSLGGGYSKAFNDAVENAFEQGVLSVVAAGNENSDAGQTSPASAPDAITVAAIQKSNNRASFSNFGKVVDVFAPGQDILSAWIGSSSATNTISGTSMATPHIVGLSLYLAALENLDGPAAVTKRIKELATKDVVKDVKGSPNLLAYNGNASGGGHHHHHHHHHH
For B1, the “processing of the 110 kDa rhGAA precursor in culture supernatant of the co-expressing strain OXYY2122 (SDS-PAGE and immunoblot)” value is given as “This processing was complete; no 110 kDa form was detected”; the “proteolysis of rhGAA to the 95 kDa form (weight:weight ratio 200:1 total protein:protease, 16 h at 30 C; SDS-PAGE)” value was “resulted in a full proteolysis to the 95 kDa product”.
